Patent US20170327598A1 (published 2017)
Where two headings read alike, the source gives them in different places.

Experiments:
Test in all cases: sandwich ELISA, STAT protein coated at 0.5 µg/mL
[1] = biological target: T1, STAT 2 protein (UniProt P52630 1-851, limits assumed)
[2] = biological target: T2, STAT 4 protein (UniProt Q14765 1-748, limits assumed)
T2 sequence (looked up): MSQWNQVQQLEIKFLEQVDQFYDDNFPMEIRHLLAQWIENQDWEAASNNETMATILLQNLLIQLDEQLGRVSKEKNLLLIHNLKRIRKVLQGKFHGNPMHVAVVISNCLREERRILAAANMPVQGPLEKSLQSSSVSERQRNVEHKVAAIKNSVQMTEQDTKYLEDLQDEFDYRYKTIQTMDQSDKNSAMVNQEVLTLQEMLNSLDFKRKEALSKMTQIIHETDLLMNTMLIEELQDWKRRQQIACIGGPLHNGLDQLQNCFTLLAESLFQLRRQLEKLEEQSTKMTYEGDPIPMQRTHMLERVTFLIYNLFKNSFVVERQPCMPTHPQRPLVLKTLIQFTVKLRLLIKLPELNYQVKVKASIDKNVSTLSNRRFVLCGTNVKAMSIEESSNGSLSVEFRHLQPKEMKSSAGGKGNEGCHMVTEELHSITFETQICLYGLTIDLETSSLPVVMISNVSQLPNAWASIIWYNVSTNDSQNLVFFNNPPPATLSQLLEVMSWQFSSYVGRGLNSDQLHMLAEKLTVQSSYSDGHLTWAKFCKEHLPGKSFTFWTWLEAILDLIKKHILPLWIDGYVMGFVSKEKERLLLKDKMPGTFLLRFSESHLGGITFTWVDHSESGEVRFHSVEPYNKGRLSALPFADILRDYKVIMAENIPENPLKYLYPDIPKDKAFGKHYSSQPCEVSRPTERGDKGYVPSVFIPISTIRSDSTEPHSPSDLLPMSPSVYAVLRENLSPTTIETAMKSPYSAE

[3] = biological target: T3, STAT 1 protein (UniProt P42224 1-750, limits assumed)
T3 sequence (looked up): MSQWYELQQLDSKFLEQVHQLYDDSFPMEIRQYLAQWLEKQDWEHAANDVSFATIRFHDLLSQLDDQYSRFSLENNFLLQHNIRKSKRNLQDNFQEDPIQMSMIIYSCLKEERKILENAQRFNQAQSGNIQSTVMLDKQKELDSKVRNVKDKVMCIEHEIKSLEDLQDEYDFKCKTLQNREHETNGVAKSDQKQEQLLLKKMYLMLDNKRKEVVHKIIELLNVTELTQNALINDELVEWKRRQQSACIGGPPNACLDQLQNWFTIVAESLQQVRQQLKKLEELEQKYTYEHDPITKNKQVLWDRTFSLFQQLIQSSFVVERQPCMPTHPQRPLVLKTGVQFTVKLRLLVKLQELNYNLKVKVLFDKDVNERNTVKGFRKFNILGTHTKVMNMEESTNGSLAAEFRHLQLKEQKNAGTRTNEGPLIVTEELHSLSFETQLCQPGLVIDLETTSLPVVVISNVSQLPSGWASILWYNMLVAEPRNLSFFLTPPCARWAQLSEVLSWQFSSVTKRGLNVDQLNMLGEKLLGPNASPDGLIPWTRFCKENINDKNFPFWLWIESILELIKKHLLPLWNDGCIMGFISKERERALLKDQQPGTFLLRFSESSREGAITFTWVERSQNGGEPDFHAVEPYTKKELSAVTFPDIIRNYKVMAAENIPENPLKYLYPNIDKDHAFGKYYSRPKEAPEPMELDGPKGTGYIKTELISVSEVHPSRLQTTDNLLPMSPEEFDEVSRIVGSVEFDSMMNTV

[4] = biological target: T4, STAT 3 protein (UniProt P40763 1-770, limits assumed)
[5] = biological target: T4, STAT 3 protein; remark: listed apart in the source
[6] = biological target: T1, STAT 2 protein; remark: listed apart in the source
[7] = biological target: T2, STAT 4 protein; remark: listed apart in the source
[8] = biological target: T5, STAT 5a protein (UniProt P42229 1-794, limits assumed)
T5 sequence (looked up): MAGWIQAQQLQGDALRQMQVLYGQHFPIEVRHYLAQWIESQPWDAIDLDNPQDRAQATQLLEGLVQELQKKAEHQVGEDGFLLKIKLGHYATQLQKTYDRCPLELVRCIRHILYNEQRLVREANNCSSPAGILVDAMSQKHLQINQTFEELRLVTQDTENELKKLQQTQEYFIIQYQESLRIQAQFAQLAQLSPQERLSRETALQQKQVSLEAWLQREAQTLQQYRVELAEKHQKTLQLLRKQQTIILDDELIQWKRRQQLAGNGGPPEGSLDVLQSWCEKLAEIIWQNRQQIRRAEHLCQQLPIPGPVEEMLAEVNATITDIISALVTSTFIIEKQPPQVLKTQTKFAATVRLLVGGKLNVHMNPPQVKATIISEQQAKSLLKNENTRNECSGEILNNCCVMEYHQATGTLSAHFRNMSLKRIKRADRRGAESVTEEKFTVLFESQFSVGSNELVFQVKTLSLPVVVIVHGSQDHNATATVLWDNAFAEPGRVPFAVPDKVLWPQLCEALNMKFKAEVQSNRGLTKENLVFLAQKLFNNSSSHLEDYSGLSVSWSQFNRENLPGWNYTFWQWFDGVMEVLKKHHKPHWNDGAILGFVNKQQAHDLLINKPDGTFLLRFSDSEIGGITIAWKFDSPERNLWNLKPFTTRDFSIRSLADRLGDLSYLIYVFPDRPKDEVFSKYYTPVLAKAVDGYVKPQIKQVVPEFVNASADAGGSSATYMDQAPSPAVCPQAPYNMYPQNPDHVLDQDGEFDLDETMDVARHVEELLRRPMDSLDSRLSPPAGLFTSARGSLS

[9] = biological target: T3, STAT 1 protein; remark: listed apart in the source

T1 sequence (P52630 whole entry): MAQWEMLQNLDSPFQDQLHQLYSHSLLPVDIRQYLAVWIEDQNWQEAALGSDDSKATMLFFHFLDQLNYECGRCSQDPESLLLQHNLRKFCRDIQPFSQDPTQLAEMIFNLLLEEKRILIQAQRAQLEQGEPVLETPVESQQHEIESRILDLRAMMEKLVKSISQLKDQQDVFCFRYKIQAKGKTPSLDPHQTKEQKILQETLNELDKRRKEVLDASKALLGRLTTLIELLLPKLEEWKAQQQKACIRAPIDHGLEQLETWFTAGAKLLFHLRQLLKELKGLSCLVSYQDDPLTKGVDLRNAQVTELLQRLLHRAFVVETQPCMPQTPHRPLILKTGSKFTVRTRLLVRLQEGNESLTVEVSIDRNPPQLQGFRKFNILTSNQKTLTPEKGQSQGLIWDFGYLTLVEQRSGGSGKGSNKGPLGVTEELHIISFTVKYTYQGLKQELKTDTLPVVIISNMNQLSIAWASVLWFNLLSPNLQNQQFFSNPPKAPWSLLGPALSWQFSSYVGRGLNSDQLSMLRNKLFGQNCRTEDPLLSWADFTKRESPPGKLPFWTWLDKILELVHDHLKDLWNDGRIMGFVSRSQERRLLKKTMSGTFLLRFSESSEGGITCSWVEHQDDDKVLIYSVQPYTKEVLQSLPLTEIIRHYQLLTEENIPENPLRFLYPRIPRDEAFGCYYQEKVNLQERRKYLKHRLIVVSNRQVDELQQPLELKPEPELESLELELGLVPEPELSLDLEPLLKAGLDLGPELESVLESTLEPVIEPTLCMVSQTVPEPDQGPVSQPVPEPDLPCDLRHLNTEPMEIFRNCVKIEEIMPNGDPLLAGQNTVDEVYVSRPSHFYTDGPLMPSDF

B1: anti-STAT3 VHH13 (SEQ ID NO:3) sdAb (VHH)
VHH: HVQLVESGGGSVQAGGSLRLSCAASGANGGRSCMGWFRQVPGKEREGVSGISTGGLITYYADSVKGRFTISQDNTKNTLYLQMNSLKPEDTAMYYCATSRFDCYRGSWFNRYMYNSWGQGTQVTVSS
[1]
  Mean OD450: 0.023 OD450
[2]
  Mean OD450: 0.083 OD450
[3]
  Mean OD450: 0.026 OD450
[4]
  Mean OD450: 2.76 OD450
[5]
  Mean OD450: 0.431 OD450
[6]
  Mean OD450: 0.186 OD450
[7]
  Mean OD450: 0.833 OD450
[8]
  Mean OD450: 0.821 OD450
[9]
  Mean OD450: 0.159 OD450
